Measured values taken from CN111909274A.

Columns and labels:
[1] = molecular target: GPC3ΔGPI-FLAG重组蛋白 (GPC3 without its GPI region, C-terminal FLAG tag) (Homo sapiens (Human)) (UniProt P51654); assay: ELISA on coated GPC3ΔGPI-FLAG, antibody pre-treated 2 h at 70℃, reference 4℃
[2] = molecular target: GPC3ΔGPI-FLAG重组蛋白 (GPC3 without its GPI region, C-terminal FLAG tag) (Homo sapiens (Human)) (UniProt P51654); assay: ELISA on coated GPC3ΔGPI-FLAG, antibody pre-treated 2 h at 90℃, reference 4℃
[3] = molecular target: GPC3ΔGPI-FLAG重组蛋白 (GPC3 without its GPI region, C-terminal FLAG tag) (Homo sapiens (Human)) (UniProt P51654); assay: ELISA on coated GPC3ΔGPI-FLAG, nanobody pre-treated 2 h at 70℃, reference 4℃
[4] = molecular target: GPC3ΔGPI-FLAG重组蛋白 (GPC3 without its GPI region, C-terminal FLAG tag) (Homo sapiens (Human)) (UniProt P51654); assay: ELISA on coated GPC3ΔGPI-FLAG, nanobody pre-treated 2 h at 90℃, reference 4℃
[5] = molecular target: mCherry-GPC3 (mCherry fused to the N-terminus of GPC3, stably expressed on HEK293T cells) (UniProt P51654); assay: immunofluorescence colocalisation on HEK293T cells expressing mCherry-GPC3, confocal microscopy

Row | 抗原结合能力下降 (fall of OD450 against the 4℃ sample) [1] [%] | 抗原结合能力下降 (fall of OD450 against the 4℃ sample) [2] [%] | 抗原结合能力下降 (fall of OD450 against the 4℃ sample) [3] [%] | 抗原结合能力下降 (fall of OD450 against the 4℃ sample) [4] [%] | 皮尔森相关系数 (Pearson correlation of mCherry and Alexa Fluor 488 signals) [5] | Molecule
1 | 42.9 | 58.3 | – | – | – | HN3-hFc融合抗体 (known GPC3 nanobody HN3 fused to human Fc, bought from Creative Biolabs) (Fc fusion)
2 | – | – | 16.7 | 30.8 | 0.929 | G11纳米抗体 (GPC3 nanobody G11, His-tagged, from pET22b-G11-His) (VHH, not shown: small tags and cut ends) VHH: QVQLVESGGALVQPGGSLRLSCAASSSDFSRNALRWYRQAPGKEREWVCGINWTGSGYAYEDSVKGRFTCSRDDARNTVYLQLNSLKPEDTAVYYCAPLACSNCFPYKHYVYWGQGTQVTVSS
